This is an account of results in PMC10763564, “BrainBike peptidomimetic enables efficient transport of proteins across brain endothelium†” (RSC Chemical Biology, 2023).

Starred links: 1 amine or outer side, 2 acyl side, 3 side chain; linkers in the order of their positions; H or OH if unused. Positions of bridges follow the written chain, without caps; N, C: chain ends. No end group written: not given here. TBMB = c1c(C[*:1])cc(C[*:3])cc1C[*:2]

The target of experiment [1] is T1, Transferrin Receptor 1 on HeLa cells (TfR1+) (human (endogenous in HeLa), UniProt P02786 1-760).
T1 construct: Transferrin Receptor 1 (TfR1), endogenous on HeLa cells; source: endogenous, on HeLa cells
The experiment is described as follows: flow cytometry on cells; sCy5-labelled peptides on HeLa cells (TfR1+, endogenous receptor). The following applies: one partner purified. (In general: Flow cytometry measures light scatter and fluorescence of single cells or particles in a stream.)

For experiment [2], the target named is T2, TfR1 fused to a green fluorescent protein, on transfected HeLa cells (TfR1+++) (UniProt P02786 1-760).
T2 construct: Transferrin Receptor 1 (TfR1) encoded by a plasmid as a fusion with GFP; The transfected HeLa cells carry the endogenous TfR1 as well; also called GFP-TfR1; source: HeLa, transfected, on cells
Put plainly: flow cytometry on cells; sCy5-labelled peptide on HeLa cells transfected with GFP-TfR1 (TfR1+++), cells with higher levels of the receptor analysed. The following applies: one partner purified.

T1 sequence (P02786 whole entry): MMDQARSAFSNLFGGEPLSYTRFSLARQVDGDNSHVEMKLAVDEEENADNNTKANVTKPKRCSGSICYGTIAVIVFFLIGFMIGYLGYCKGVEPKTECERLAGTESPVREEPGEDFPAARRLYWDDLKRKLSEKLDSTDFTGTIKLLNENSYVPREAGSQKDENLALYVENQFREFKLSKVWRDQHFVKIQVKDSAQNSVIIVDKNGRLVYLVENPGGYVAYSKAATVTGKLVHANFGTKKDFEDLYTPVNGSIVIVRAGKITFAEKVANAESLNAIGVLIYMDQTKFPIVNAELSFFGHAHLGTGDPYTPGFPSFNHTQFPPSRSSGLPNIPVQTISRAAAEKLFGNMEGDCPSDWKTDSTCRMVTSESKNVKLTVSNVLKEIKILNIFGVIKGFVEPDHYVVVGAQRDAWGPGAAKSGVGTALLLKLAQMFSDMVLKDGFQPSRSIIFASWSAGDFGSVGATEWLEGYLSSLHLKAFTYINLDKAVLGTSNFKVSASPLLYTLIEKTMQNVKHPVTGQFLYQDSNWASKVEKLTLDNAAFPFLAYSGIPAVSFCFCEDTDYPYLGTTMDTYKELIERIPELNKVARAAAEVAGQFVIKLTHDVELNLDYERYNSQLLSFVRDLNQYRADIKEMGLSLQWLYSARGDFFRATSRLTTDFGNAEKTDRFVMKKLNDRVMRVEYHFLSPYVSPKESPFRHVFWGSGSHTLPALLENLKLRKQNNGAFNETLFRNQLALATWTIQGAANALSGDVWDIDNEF
T2 sequence (P02786 whole entry, the tested form may be a part): as the sequence (P02786 whole entry) above

A word on the Kd: it is the free concentration of one partner at which half of the binding sites on the other are occupied at equilibrium, for simple one-to-one binding. A higher Kd goes with a looser complex. As to {sulfo‑Cyanine5}-GSGCVHWDCRQWC (linker 4-9-13 via TBMB) [BrainBike-4 labelled with sulfo-Cyanine5], in experiment [1], the Kd is around 40 nM and the “fold cell association against the parent peptide Y1” value came to 7 fold. The “fold binding against the same cells without overexpressing the receptor” value in experiment [2] is around 40 fold.
